Columns and labels:
PINK1 = PINK1 accumulation by fractionation and immunoblotting; type: cell-based; settings: HeLa cells, mitochondrial membrane fraction; 10 μM CCCP or 1 μM valinomycin
Procedure, shortened: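 HeLa cells fractionated with a mitochondria isolation kit for PINK1, with membrane fractions carbonate-extracted in cold 0.1M Na2CO3 to pellet integral membrane proteins; Parkin fractionation by a separate published protocol. PINK1 and Parkin detected in fractions by immunoblot with monoclonal and polyclonal antibodies.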

HeLa cells = test: Parkin in mitochondria-rich membrane fraction, immunoblot; type: cell-based; settings: HeLa, CCCP 1 hr, Western blotting
Source text: (§1) For PINK1 experiments, cells were fractionated using the Mitochondria Isolation Kit (Pierce), according to manufacturer's specifications with slight modifications. To isolate integral membrane proteins, membrane fractions obtained as above were carbonate extracted with 0.1M Na2CO3 fresh cold buffer and membranes were pelleted, as described in the supplemental methods. For Parkin experiments, cells were fractionated as described previously, with minor modifications described in the supplemental methods (Narendra (2008) J Cell Biol 183: 795-803). The following primary antibodies were used: anti-Parkin (PRK8) monoclonal (Santa Cruz), anti-Tom20 polyclonal (Santa Cruz), anti-cytochrome c monoclonal (BD Biosciences), anti-PINK1 polyclonal (Novus Biologicals), anti-VDAC monoclonal (Calbiochem), anti-GAPDH polyclonal (Sigma-Aldrich), anti-Tubulin monoclonal (Sigma-Aldrich), anti-V5 monoclonal (Invitrogen), anti-GFP polyclonal (Invitrogen).
as §1, with “with slight modifications described in the supplemental methods. To isolate” for “with slight modifications. To isolate”, “minor modifications detailed in the” for “minor modifications described in the”, “supplemental methods (Narendra (2008) J Cell Biol 183: 795-803). The protease protection assay was performed as described previously (Chen (2005) J Biol Chem 280: 26185-26192). Cells were fixed and immunostained as described previously (Narendra (2008)” for “supplemental methods (Narendra (2008)”, “anti-GFP polyclonal (Invitrogen), anti-TIM23 monoclonal (BD Biosciences), and anti-Hsp60 monoclonal (Stressgen).” for “anti-GFP polyclonal (Invitrogen).”

[1] = tested on: M17 human neuroblastoma cells; test: Parkin-induced mitophagy in M17 cells; type: cell-based; settings: control shRNA (Parkin line) or PINK1 shRNA, 10 μM CCCP, 24 hours
Source text: HeLa YFP-Parkin, PINK1+/+ SV40 transformed MEFs cells, PINK1−/− SV40 transformed MEF, M17 neuroblastoma control shRNA, M17 neuroblastoma PINK1, and Mfn1/2−/− MEF cell lines have been described previously (Narendra (2008) J Cell Biol 183: 795-803). PINK1+/+ and PINK1−/− primary MEFs were isolated from embryos using a standard protocol (Gautier (2008) Proc Natl Acad Sci USA 105: 11364-11369). Parkin+/+ and Parkin−/− transformed MEFs were created by isolation of primary cells from embryos of B6.129S4-Park2tm1Shn/J mice (Jackson Labs), using a standard protocol (Gautier (2008) Proc Natl Acad Sci USA 105: 11364-11369), followed by retroviral transduction of SV40 (Applied Biological Materials, Inc.). YFP-Parkin, YFPParkin mutants, mCherry-Parkin, PINK1-YFP, PINK1 KD-YFP, PINK1 Δ1-110-YFP, and Opa3-PINK1 Δ1-110-YFP are in C1 or N1 Clontech vectors. PINK1WT-V5, PINK1 KD-V5, and PINK1 Δ1-156-V5 are in pDest40 vector (Invitrogen). PINK1 patient mutations are in pLenti-V5 vector (Invitrogen). PINK1-myc is in a pCMBTNT vector (Promega).
Confocal microscopy of fixed samples, scoring of Parkin recruitment and Parkininduced mitophagy, and live cell imaging were performed as described previously (Narendra (2008) J Cell Biol 183: 795-803). Experiments in Mfn1/2 null cells were performed as described previously with minor modifications. […]

Cytochrome c oxidase = Cytochrome c oxidase activity assay; type: cell-based, human
Protocol: Cells grown on 10 cm diameter dishes were collected in extraction buffer [10 mM HEPE, 10 mM […], 1.5 mM MgCl2,4 mM NaF, 100 μM NaOVac, 1× protease cocktail (Roche)] and lysed by 20 passages through a 25 gauge needle. Samples were spun at 500×g for 5 minutes to pellet nuclei. The supernatant was then spun at 8000 rpm for 10 minutes to pellet the mitochondrial rich heavy membrane fraction. The pellet was washed with extraction buffer once and resuspended in 1× enzyme dilution buffer containing 1 mM n-dodecyl-p-maltoside (CYTOCX1 kit, Sigma). The COXI activity assay was performed according to the manufacturer's instructions. Fresh 10 μg of mitochondrial protein and 10 μM Ferrocytochrome c substrate were used in each assay. SpectraMax plus^384 (Molecular Devices) was used to measure A550 every 10 seconds for […] The Vmax of each sample was calculated by SOFTmax PRO (Molecular Devices). The mean and standard deviation were calculated from three experiments

## N#CC(C#N)=NNc1cccc(Cl)c1 [CCCP, carbonyl cyanide m-chlorophenylhydrazone]
PINK1
  endogenous full length PINK1 (˜63 kDa) level after depolarization: large increase

B1: YFP-Parkin: YFP-tagged Parkin E3 ligase expressed from a transfected vector (protein, UniProt O60260 1-465, looked up)
E3 ubiquitin-protein ligase …: MIVFVRFNSSHGFPVEVDSDTSIFQLKEVVAKRQGVPADQLRVIFAGKELRNDWTVQNCDLDQQSIVHIVQRPWRKGQEMNATGGDDPRNAAGGCEREPQSLTRVDLSSSVLPGDSVGLAVILHTDSRKDSPPAGSPAGRSIYNSFYVYCKGPCQRVQPGKLRVQCSTCRQATLTLTQGPSCWDDVLIPNRMSGECQSPHCPGTSAEFFFKCGAHPTSDKETSVALHLIATNSRNITCITCTDVRSPVLVFQCNSRHVICLDCFHLYCVTRLNDRQFVHDPQLGYSLPCVAGCPNSLIKELHHFRILGEEQYNRYQQYGAEECVLQMGGVLCPRPGCGAGLLPEPDQRKVTCEGGNGLGCGFAFCRECKEAYHEGECSAVFEASGTTTQAYRVDERAAEQARWEAASKETIKKTTKPCPRCHVPVEKNGGCMHMKCPQPQCRLEWCWNCGCEWNRVCMGDHWFDV
modifications: YFP fusion
notes: YFP-tagged Parkin E3 ligase expressed from a transfected vector
HeLa cells
  translocation of YFP-Parkin variant to mitochondria-rich membrane fraction: increase
[1]
  cells with complete loss of mitochondria: 27.1±8.6%
Cytochrome c oxidase; COXICA65 cybrid, YFP-Parkin for 45 days
  COX activity relative to parental 143B cells: 65.8±16.14%
Cytochrome c oxidase; COXICA65 cybrid, YFP-Parkin for 60 days
  COX activity relative to parental 143B cells: 96.90±8.49%
Cytochrome c oxidase; Parkin-enriched cybrid cells stably at ˜50% wild-type mtDNA, 67 days without selection
  COX activity relative to parental 143B cells: 55.7±29.2%

Source: patent publication US20120277286A1, “COMPOSITIONS AND METHODS FOR THE TREATMENT OR PREVENTION OF MITOCHONDRIAL DISEASES” (The Government of the USA, as represented by the Secretary, …, priority 2009, published 2012)
